Results on six molecules are retold here after US20240174763A1 (NOVOPROTEIN SCIENTIFIC, published 2024).

In experiment [1] the target is human CD73 on SK-OV-3 cells (human ovarian adenocarcinoma cells) (human) (UniProt P21589). Briefly: flow cytometry on SK-OV-3 cells.
The target is the same in experiment [2]. The experiment can be described thus: flow cytometry on SK-OV-3 cells, anti-hFc-APC. For orientation: A flow cytometer gives signals particle by particle.
Experiment [3] shares this target. Briefly: flow cytometry on SK-OV-3 cells, anti-hFc-APC. The source holds these as a separate data set.
Experiment [4] concerns the target monkey CD73 on CHOK1-cynoCD73 cells (monkey). The experiment can be described thus: flow cytometry on CHOK1-cynoCD73 cells.
In experiment [5] the target is human CD73 on SK-OV-3 cells (human ovarian adenocarcinoma cells) (human) (UniProt P21589). The experiment can be described thus: flow cytometry on SK-OV-3 cells, anti-hFc-APC. The source holds these as a separate data set.
Experiment [6] shares this target. Briefly: flow cytometry on SK-OV-3 cells. This is another data set of the same source.
For experiment [7] the target is unchanged. The experiment can be described thus: flow cytometry on SK-OV-3 cells. The source holds these as a separate data set.
For experiment [8], the target named is T1, recombinant monkey CD73 protein (monkey, UniProt A0A2K5V5U7 27-549).
T1 construct: Monkey species not further named for the recombinant protein (the cell line is called cynoCD73)
T1 sequence: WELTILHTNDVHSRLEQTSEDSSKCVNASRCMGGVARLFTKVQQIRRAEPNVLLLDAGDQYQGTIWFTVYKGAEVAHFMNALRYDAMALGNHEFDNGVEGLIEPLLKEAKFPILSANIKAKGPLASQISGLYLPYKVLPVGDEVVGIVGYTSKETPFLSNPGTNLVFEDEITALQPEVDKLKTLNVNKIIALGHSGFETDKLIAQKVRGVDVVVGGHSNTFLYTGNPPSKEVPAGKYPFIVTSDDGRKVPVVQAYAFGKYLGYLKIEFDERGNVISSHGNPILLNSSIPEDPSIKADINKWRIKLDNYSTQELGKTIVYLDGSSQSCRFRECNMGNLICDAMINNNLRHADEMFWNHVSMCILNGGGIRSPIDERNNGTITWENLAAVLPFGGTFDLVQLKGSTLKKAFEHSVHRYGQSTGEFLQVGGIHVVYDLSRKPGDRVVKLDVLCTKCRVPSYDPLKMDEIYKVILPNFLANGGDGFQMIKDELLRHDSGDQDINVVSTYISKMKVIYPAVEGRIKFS
Briefly: ELISA, plate coated with recombinant monkey CD73 at 3 µg/mL. From the text: (§1) The combination of antibody and the recombinant monkey CD73 was detected by an ELISA method, and the result is shown in FIG. 8B.

In experiment [9] the target is T2, recombinant human CD73 protein (human, UniProt P21589 27-547, limits assumed).
T2 construct: Bought recombinant protein; the assays only say recombinant human CD73; also called rhCD73; recombinant hCD73 protein
T2 sequence (looked up): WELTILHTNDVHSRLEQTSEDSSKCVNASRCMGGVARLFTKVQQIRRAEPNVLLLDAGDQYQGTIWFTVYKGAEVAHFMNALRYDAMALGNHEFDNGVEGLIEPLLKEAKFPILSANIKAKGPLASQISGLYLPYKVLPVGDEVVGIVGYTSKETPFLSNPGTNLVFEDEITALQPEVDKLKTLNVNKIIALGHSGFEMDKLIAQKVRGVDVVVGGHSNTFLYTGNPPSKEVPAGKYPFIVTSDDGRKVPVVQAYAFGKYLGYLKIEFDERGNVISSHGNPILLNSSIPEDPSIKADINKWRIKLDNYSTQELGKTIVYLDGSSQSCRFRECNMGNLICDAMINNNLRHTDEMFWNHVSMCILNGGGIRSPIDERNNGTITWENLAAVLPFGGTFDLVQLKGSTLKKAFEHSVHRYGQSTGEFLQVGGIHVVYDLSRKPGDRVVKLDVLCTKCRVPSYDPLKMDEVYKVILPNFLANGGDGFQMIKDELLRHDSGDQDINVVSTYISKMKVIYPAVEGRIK
Briefly: ELISA, plate coated with recombinant human CD73 at 3 µg/mL. Background: ELISA stands for enzyme-linked immunosorbent assay.

Experiment [10] deals with T3, monkey CD73 on CHOK1-cynoCD73 cells (monkey, UniProt A0A2K5V5U7 27-549, GPI anchor at the C-terminus of the mature chain (paragraph 3 says CD73 is GPI-anchored). The propeptide 550-574 is removed.).
T3 construct: also called CHOK1-cyno73 cells; monkey CD73 positive cells
T3 sequence: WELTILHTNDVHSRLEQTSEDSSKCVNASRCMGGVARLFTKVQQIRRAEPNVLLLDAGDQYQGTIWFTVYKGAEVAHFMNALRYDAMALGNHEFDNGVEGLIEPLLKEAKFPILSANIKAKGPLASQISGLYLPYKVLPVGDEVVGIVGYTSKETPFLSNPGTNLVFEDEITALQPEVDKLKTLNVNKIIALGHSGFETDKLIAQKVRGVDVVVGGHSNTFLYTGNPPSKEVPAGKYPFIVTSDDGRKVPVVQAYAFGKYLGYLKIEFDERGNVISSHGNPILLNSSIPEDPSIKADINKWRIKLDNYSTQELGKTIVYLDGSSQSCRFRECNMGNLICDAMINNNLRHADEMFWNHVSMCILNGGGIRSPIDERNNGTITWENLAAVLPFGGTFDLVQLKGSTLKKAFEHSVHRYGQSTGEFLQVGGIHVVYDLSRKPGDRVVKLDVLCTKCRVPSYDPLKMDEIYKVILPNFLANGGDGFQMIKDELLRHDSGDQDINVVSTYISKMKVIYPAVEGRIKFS
The experiment can be described thus: flow cytometry on CHOK1-cynoCD73 cells. The source says:
The full length of monkey CD73 was constructed on a eukaryotic expression vector containing NEO resistance, CHO-K1 cells were transfected, G418 was used for screening to obtain a CHOK1-cynoCD73 cell strain.

The target of experiment [11] is T4, human CD73 on SK-OV-3 cells (human ovarian adenocarcinoma cells) (human, UniProt P21589 27-549).
T4 construct: whole, on cells; also called human CD73 positive cells
T4 sequence (looked up): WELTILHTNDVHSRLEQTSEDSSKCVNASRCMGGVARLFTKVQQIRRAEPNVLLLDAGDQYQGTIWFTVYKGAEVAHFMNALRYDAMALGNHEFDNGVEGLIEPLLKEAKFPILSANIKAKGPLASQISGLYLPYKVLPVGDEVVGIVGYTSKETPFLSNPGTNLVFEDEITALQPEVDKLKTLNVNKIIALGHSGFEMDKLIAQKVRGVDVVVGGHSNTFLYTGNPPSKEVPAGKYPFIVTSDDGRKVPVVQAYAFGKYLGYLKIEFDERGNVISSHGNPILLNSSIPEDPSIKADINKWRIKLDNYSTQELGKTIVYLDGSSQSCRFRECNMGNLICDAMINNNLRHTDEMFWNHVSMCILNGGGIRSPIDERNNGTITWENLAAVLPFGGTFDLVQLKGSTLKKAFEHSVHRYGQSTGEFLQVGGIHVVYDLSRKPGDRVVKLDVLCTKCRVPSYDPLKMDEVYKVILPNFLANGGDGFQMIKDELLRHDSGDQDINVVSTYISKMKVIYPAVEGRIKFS
The experiment can be described thus: flow cytometry on SK-OV-3 cells.

For experiment [12], the target named is T1, recombinant monkey CD73 protein. Briefly: ELISA, recombinant monkey CD73 coated at 3 ug/mL.
From the text: as §1

Experiment [13] addresses T4, human CD73 on SK-OV-3 cells (human …). The experiment can be described thus: flow cytometry on SK-OV-3 cells, anti-hFc-APC.
Experiment [14] concerns the target T2, recombinant human CD73 protein. The experiment can be described thus: ELISA, recombinant human CD73 coated at 3 ug/mL.
The target of experiment [15] is T4, human CD73 on SK-OV-3 cells (human …). Briefly: flow cytometry on SK-OV-3 cells. This is another data set of the same source.
In experiment [16] the target is T2, recombinant human CD73 protein. The experiment can be described thus: ELISA, recombinant human CD73 coated at 3 ug/mL. This is another data set of the same source.
Experiment [17] shares this target. Briefly: ELISA, recombinant human CD73.
Experiment [18] deals with T1, recombinant monkey CD73 protein. The experiment can be described thus: ELISA, recombinant monkey CD73 coated at 3 ug/mL. The source holds these as a separate data set.
In experiment [19] the target is T3, monkey CD73 on CHOK1-cynoCD73 cells. The experiment can be described thus: flow cytometry on CHOK1-cynoCD73 cells. This is another data set of the same source.
Experiment [20] deals with T1, recombinant monkey CD73 protein. The experiment can be described thus: ELISA, recombinant monkey CD73.
Experiment [21] concerns the target T3, monkey CD73 on CHOK1-cynoCD73 cells. The experiment can be described thus: flow cytometry on CHOK1-cynoCD73 cells. This is another data set of the same source.
Experiment [22] concerns the target T4, human CD73 on SK-OV-3 cells (human …). The experiment can be described thus: flow cytometry on SK-OV-3 cells, anti-hFc-APC. The source holds these as a separate data set.

Read-outs that look alike come from different tables or passages of the source.

As for “MEDI-9447 of AstraZeneca(AZ)/Medimmune (antibody)”, the EC50 (in general, the concentration at which the effect is half-maximal) in experiment [1] turned out to be 0.00963 µg/mL; in experiment [4], 0.00412 µg/mL; in experiment [6] it was 0.0336 µg/mL; in experiment [7], 23.5 µg/mL. In addition, the EC50 (read off the curve) (usually the concentration giving half of the maximal effect) amounted to 0.1 µg/mL in experiment [2], 0.03 µg/mL in [3], 0.002 µg/mL in experiment [4] and 0.02 µg/mL in [5].

B1: humanized CQ137 monoclonal antibody (137-3) (antibody, V domains shown)
VH: QVQLVQSGAEVKKPGSSVKVSCKASGYSFTGYYIHWVRQAPGQGLEWMGRINPYNGATTYNQNFKDRVTITVDKSTSTAYMELSSLRSEDTAVYYCARFHYGAPDYWGQGTLVTVSS
VL: DIQMTQSPSSLSASVGDRVTITCKASQDINTYLTWYQQKPGKAPKTLIYRANILVDGVPSRFSGSGSGTDFTLTISSLQPEDFATYYCLQYDEFPLTFGGGTKVEIKR
As for B1, the EC50 in experiment [8] is 0.202 µg/mL; in [9], 0.331 µg/mL; in experiment [10], 0.0403 µg/mL; in experiment [11], 7.03 µg/mL. Further, the “EC50 (read off the curve)” value was about 0.04 µg/mL in [10], about 0.2 µg/mL in experiment [12], about 0.003 µg/mL in experiment [13] and about 0.3 µg/mL in [14].

B2: humanized CQ137 monoclonal antibody (137-4) (antibody, V domains shown)
VH: QVQLVQSGAEVKKPGSSVKVSCKASGYSFTGYYIHWVRQAPGQGLEWMGRINPYNGATTYNQNFKDRVTITVDKSTSTAYMELSSLRSEDTAVYYCARFHYGAVDYWGQGTLVTVSS
VL: DIQMTQSPSSLSASVGDRVTITCKASQDINTYLTWYQQKPGKAPKTLIYRANILVDGVPSRFSGSGSGTDFTLTISSLQPEDFATYYCLQYEEFPLTFGGGTKVEIKR
Consider B2, for which the EC50 in [15] is 0.00307 µg/mL; in experiment [17] it was 0.262 µg/mL; in experiment [19], 0.00831 µg/mL; in experiment [20], 0.352 µg/mL. For the same molecule, the “EC50 (read off the curve)” value in [16] was about 0.3 µg/mL; in experiment [18], about 0.4 µg/mL; in [21] it was about 0.008 µg/mL; in experiment [22], about 0.003 µg/mL.

B3: humanized CQ137 monoclonal antibody (137-2) (antibody, V domains shown)
VH: QVQLVQSGAEVKKPGASVKVSCKASGYSFTGYYIHWVRQAPGQGLEWMGRINPYNGATTYNQNFKDRVTMTVDKSTSTAYMELRSLRSDDTAVYYCARFHYGAPDYWGQGTLVTVSS
VL: DIQMTQSPSSLSASVGDRVTITCKASQDINTYLTWFQQKPGKAPKSLIYRANILVDGVPSRFSGSGSGTDFTLTISSLQPEDFATYYCLQYDEFPLTFGGGTKVEIKR
On to B3, for which the EC50 in [8] worked out at 0.313 µg/mL; in experiment [9] it was 0.275 µg/mL; in experiment [10], 0.0233 µg/mL; in experiment [11], 3.26 µg/mL. In addition, the “EC50 (read off the curve)” value was about 0.02 µg/mL in experiment [10], about 0.3 µg/mL in [12], about 0.007 µg/mL in experiment [13] and about 0.3 µg/mL in [14].

B4: humanized CQ137 monoclonal antibody (137-6) (antibody, V domains shown)
VH: QVQLVQSGAEVKKPGSSVKVSCKASGYSFTGYYIHWVRQAPGQGLEWMGRINPYNGATTYNQNFKDRVTITVDKSTSTAYMELSSLRSEDTAVYYCARFHYGAPEYWGQGTLVTVSS
VL: DIQMTQSPSSLSASVGDRVTITCKASQDINTYLTWYQQKPGKAPKTLIYRANILVDGVPSRFSGSGSGTDFTLTISSLQPEDFATYYCLQYAEFPLTFGGGTKVEIKR
Regarding B4, the half-maximal effective concentration (EC50) in experiment [15] stood at 0.00371 µg/mL; in experiment [17], 0.267 µg/mL; in [19] it was 0.00769 µg/mL; in experiment [20] it was 0.315 µg/mL. Further, the “EC50 (read off the curve)” value in experiment [16] was about 0.3 µg/mL; in experiment [18], about 0.3 µg/mL; in [21], about 0.008 µg/mL; in experiment [22], about 0.004 µg/mL.

B5: humanized CQ137 monoclonal antibody (137-1) (antibody, V domains shown)
VH: QVQLVQSGAEVKKPGASVKVSCKASGYTFTGYYIHWVRQAPGQGLEWMGRINPYNGATTYNQNFKDRVTMTVDKSTSTAYMELRSLRSDDTAVYYCARFHYGAPDYWGQGTLVTVSS
VL: DIQMTQSPSSLSASVGDRVTITCKASQDINTYLTWFQQKPGKAPKTLIYRANILVDGVPSRFSGSGSGQDYTLTISSLQPEDFATYYCLQYDEFPLTFGGGTKVEIKR
For the molecule B5, the EC50 was determined as 3.76 µg/mL in [8], 0.258 µg/mL in experiment [9], 0.0862 µg/mL in experiment [10] and 2.13 µg/mL in experiment [11]. For the same molecule, the “EC50 (read off the curve)” value in experiment [10] is about 0.09 µg/mL; in experiment [13] it was about 0.002 µg/mL; in experiment [14], about 0.3 µg/mL.
